8 molecules from patent US20160279215A1, “NOVEL PEPTIDES AND COMBINATION OF PEPTIDES FOR USE IN IMMUNOTHERAPY AGAINST VARIOUS TUMORS” (immatics biotechnologies GmbH, priority 2015, published 2016) can be followed below.

For test [1], the target named is T1, HLA-A*02:01 (human).
T1 construct: MHC monomers captured on streptavidin plates; the UV-sensitive peptide is cleaved and exchanged with the test peptide; also called peptide-receptive MHC molecules; MHC class I
Briefly: UV ligand-exchange ELISA (anti-b2m); ++++ = exchange yield >=75%. From the text: (§1) Candidate peptides for T cell based therapies according to the present invention were further tested for their MHC binding capacity (affinity). The individual peptide-MHC complexes were produced by UV-ligand exchange, where a UV-sensitive peptide is cleaved upon UV-irradiation, and exchanged with the peptide of interest as analyzed. Only peptide candidates that can effectively bind and stabilize the peptide-receptive MHC molecules prevent dissociation of the MHC complexes. To determine the yield of the exchange reaction, an ELISA was performed based on the detection of the light chain (β2m) of stabilized MHC complexes. The assay was performed as generally described in Rodenko et al. (Rodenko et al., 2006).
(§2) 96 well MAXISorp plates (NUNC) were coated over night with 2 ug/ml streptavidin in PBS at room temperature, washed 4× and blocked for 1 h at 37° C. in 2% BSA containing blocking buffer. Refolded HLA-A*02:01/MLA-001 monomers served as standards, covering the range of 15-500 ng/ml. Peptide-MHC monomers of the UV-exchange reaction were diluted 100 fold in blocking buffer. Samples were incubated for 1 h at 37° C., washed four times, incubated with 2 ug/ml HRP conjugated anti-β2m for 1 h at 37° C., washed again and detected with TMB solution that is stopped with […]. Absorption was measured at 450 nm. Candidate peptides that show a high exchange yield (preferably higher than 50%, most preferred higher than 75%) are generally preferred for a generation and production of antibodies or fragments thereof, and/or T cell receptors or fragments thereof, as they show sufficient avidity to the MHC molecules and prevent dissociation of the MHC complexes.
Background: ELISA stands for enzyme-linked immunosorbent assay.

Test [2] concerns the target T1, HLA-A*02:01. In words: UV ligand-exchange ELISA (anti-b2m); + = exchange yield >=10%.
Source text: as §1, §2

B1: FLLEREQLL (peptide)
peptide: FLLEREQLL
Consider B1, for which the peptide exchange yield with HLA-A*02:01 [1] is at least 75%.

B2: AQHLSTLLL (peptide)
peptide: AQHLSTLLL
As for B2, the peptide exchange yield with HLA-A*02:01 [2] is 10 to 20%.

B3: GLLDCPIFL (peptide)
peptide: GLLDCPIFL
Molecule B3 gave a peptide exchange yield in the test with HLA-A*02:01 [1] of at least 75%.

B4: SEMEELPSV (peptide)
peptide: SEMEELPSV
B4: in the test with HLA-A*02:01 [2], the peptide exchange yield was 10 to 20%.

B5: RLFEEVLGV (peptide)
peptide: RLFEEVLGV
Turning to B5, in the test with HLA-A*02:01 [1], the peptide exchange yield is at least 75%.

B6: GPGIFPPPPPQP (peptide)
peptide: GPGIFPPPPPQP
On to B6, for which the peptide exchange yield with HLA-A*02:01 [2] fell in the range of 10 to 20%.

B7: FLNAIETAL (peptide)
peptide: FLNAIETAL
In the test with HLA-A*02:01 [1], B7 yielded a peptide exchange yield of at least 75%.

B8: QTAPEEAFIKL (peptide)
peptide: QTAPEEAFIKL
Consider B8, for which, in the test with HLA-A*02:01 [2], the peptide exchange yield is 10 to 20%.
